Kd data for 4 molecules are collected here from article PMC12097012, “Direct Quantification of Protein–Protein Interactions in Living Bacterial Cells” (Advanced Science, 2025).

For assay [1], the target named is T1, eGFPd-^CDD_(MlnB).
T1 chain: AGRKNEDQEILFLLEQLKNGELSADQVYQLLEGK
Kind of assay: FRET or BRET; in vitro FRET with purified fusion proteins in PBS, plate reader, 37 °C; donor protein fixed at 1 × 10^-6 M, acceptor protein 0 to 20 × 10^-6 M. The following applies: both partners purified. In general terms: Bioluminescence resonance energy transfer reports proximity on the nanometre scale.

Assay [2] concerns the target T1, eGFPd-^CDD_(MlnB). Kind of assay: ITC; cell: 80 × 10^-6 M eGFPd-CDD_MlnB; syringe: 1.6 × 10^-3 M NDD_MlnC-mRFP, 20 injections of 2 µL; 20 mM Tris-HCl pH 7.9, 250 mM NaCl, 1 mM EDTA, 10% glycerol, 1 mM TCEP; 37 °C; single binding site model. The following applies: both partners purified. Background: In ITC the heat of successive injections is recorded.
For assay [3], the target named is T1, eGFPd-^CDD_(MlnB). Kind of assay: FRET or BRET; KD-FRET: sensitized-emission (three-channel) FRET microscopy of single living E. coli BW25993 cells (UvrA/UvrB: uvrA uvrB double deletion strain), donor eGFPd fusion from pFF838, acceptor mRFP fusion from pBBR6k, M9 medium, 37 °C; corrections to step 6; FRET efficiency against binned acceptor concentration fitted to a quadratic binding equation. The following applies: partners not purified.

For assay [4], the target named is T2, ^CDD_(ElaJ).
T2 chain: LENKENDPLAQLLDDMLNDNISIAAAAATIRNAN
The description is as above. Conditions: partners not purified.

Assay [5] concerns the target T3, ^CDD_(MlnD) labeled with eGFPd.
T3 chain: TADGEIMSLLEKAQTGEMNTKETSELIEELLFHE
Kind of assay: FRET or BRET; in vitro FRET with purified fusion proteins in PBS, plate reader, 37 °C; donor protein fixed at 1 × 10^-6 M, acceptor protein 0 to 20 × 10^-6 M. The following applies: both partners purified.

Assay [6] has the same target. Kind of assay: FRET or BRET; KD-FRET: sensitized-emission (three-channel) FRET microscopy of single living E. coli BW25993 cells (UvrA/UvrB: uvrA uvrB double deletion strain), donor eGFPd fusion from pFF838, acceptor mRFP fusion from pBBR6k, M9 medium, 37 °C; corrections to step 6; FRET efficiency against binned acceptor concentration fitted to a quadratic binding equation. The following applies: partners not purified.

Assay [7] concerns the target T4, UvrA-eGFPd (E. coli, UniProt P0A698 1-940).
T4 construct: UvrA, nucleotide excision repair protein of E. coli; source: E. coli BW25993 with double deletion of uvrA and uvrB (SY006), expressed from the donor vector, in living cells; not shown: eGFPd, C-terminal, kept
T4 sequence (looked up): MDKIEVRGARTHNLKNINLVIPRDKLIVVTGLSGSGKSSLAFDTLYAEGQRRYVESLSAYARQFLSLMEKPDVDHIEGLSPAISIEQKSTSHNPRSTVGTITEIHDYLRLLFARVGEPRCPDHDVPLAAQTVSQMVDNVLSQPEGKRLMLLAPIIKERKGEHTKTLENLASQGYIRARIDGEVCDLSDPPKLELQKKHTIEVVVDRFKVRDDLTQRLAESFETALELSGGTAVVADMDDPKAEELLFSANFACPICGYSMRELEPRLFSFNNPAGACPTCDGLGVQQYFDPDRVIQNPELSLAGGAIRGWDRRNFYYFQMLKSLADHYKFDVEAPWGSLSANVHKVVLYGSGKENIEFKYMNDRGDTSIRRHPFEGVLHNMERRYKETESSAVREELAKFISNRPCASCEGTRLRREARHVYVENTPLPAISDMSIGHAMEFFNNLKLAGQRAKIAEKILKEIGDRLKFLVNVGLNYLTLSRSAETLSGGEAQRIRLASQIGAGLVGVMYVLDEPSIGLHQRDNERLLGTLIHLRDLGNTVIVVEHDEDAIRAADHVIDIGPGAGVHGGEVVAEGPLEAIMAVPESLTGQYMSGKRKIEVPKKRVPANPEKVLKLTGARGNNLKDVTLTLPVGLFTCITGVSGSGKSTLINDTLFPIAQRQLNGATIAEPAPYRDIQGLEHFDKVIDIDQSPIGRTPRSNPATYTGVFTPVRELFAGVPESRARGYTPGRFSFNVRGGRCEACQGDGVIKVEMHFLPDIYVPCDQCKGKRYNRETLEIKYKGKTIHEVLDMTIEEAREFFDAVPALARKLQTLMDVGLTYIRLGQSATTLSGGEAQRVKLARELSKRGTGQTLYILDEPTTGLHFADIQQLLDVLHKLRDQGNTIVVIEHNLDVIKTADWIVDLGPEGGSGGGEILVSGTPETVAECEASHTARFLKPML
The description is as above. The following applies: partners not purified.

Ends that are not written are not given here.

One may read the Kd as the constant that tells how readily two partners part at equilibrium.

B1: ^NDD_(MlnC)-mRFP (domain or fragment)
chain: MQIKQILSLIEEQQMSPDAGLELIRTYRKEQMEKK
modifications: also: fused to mRFP
On to B1, for which the results for the Kd in assay [1], in assay [2] and in assay [3] were 5660 nM, 6850 nM and 2290 nM, respectively.

B2: ^NDD_(ElaK) (domain or fragment)
chain: MKDYIEHILEEIKHNRLSKQEGLEQIRQFRSKGNV
modifications: not fully specified
Turning to B2, the dissociation constant Kd in assay [4] came out at 1180 nM.

B3: ^NDD_(MlnE) labeled with mRFP (domain or fragment)
chain: MNEKTMQIEQIVKKVKECSLTPEEGLELIKSLGKT
modifications: also: labeled with mRFP
For the molecule B3, the Kd in assay [5] was 1500 nM; in assay [6], 250 nM.

B4: UvrB-mRFP (natural protein, E. coli, UniProt P0A8F8 1-673, looked up)
chain: MSKPFKLNSAFKPSGDQPEAIRRLEEGLEDGLAHQTLLGVTGSGKTFTIANVIADLQRPTMVLAPNKTLAAQLYGEMKEFFPENAVEYFVSYYDYYQPEAYVPSSDTFIEKDASVNEHIEQMRLSATKAMLERRDVVVVASVSAIYGLGDPDLYLKMMLHLTVGMIIDQRAILRRLAELQYARNDQAFQRGTFRVRGEVIDIFPAESDDIALRVELFDEEVERLSLFDPLTGQIVSTIPRFTIYPKTHYVTPRERIVQAMEEIKEELAARRKVLLENNKLLEEQRLTQRTQFDLEMMNELGYCSGIENYSRFLSGRGPGEPPPTLFDYLPADGLLVVDESHVTIPQIGGMYRGDRARKETLVEYGFRLPSALDNRPLKFEEFEALAPQTIYVSATPGNYELEKSGGDVVDQVVRPTGLLDPIIEVRPVATQVDDLLSEIRQRAAINERVLVTTLTKRMAEDLTEYLEEHGERVRYLHSDIDTVERMEIIRDLRLGEFDVLVGINLLREGLDMPEVSLVAILDADKEGFLRSERSLIQTIGRAARNVNGKAILYGDKITPSMAKAIGETERRREKQQKYNEEHGITPQGLNKKVVDILALGQNIAKTKAKGRGKSRPIVEPDNVPMDMSPKALQQKIHELEGLMMQHAQNLEFEEAAQIRDQLHQLRELFIAAS
notes: UvrB, nucleotide excision repair protein of E. coli; source: E. coli BW25993 with double deletion of uvrA and uvrB (SY006), expressed from the acceptor vector, in living cells; not shown: mRFP, C-terminal, kept
As for B4, the dissociation constant (Kd) in assay [7] came to 170 nM.
